How the values were obtained:
[1] = tested on: peritoneal macrophages; assay: Alternative activation of peritoneal macrophages in mice (RT-PCR); type: in vivo; settings: Balb/c mice, three i.p. injections of 5 μg
Experimental: FIG. 7 is a photographic representation showing the results of a RT-PCR analysis of macrophage RNA isolated from Balb/c mice given three i.p. injections of 5 μg native FhHDM-1 (NFh6) or recombinant FhHDM-1 (FH6).
Balb/c mice were given three intraperitoneal (i.p.) injections of 5 μg native (NFh6) or recombinant FhHDM-1.

[2] = tested on: human monocytes; assay: Activation marker expression on stimulated human monocytes (flow cytometry); type: cell-based; settings: human monocytes stimulated 40 h with 10 μg/mL
[3] = tested on: LPS-induced inflammatory response; assay: Endotoxin (LPS)-induced inflammation in mice, co-injection; type: in vivo, BALB/c mice
Experimental: FIG. 9 is a graphical representation showing LPS neutralization by FhHDM-1. The ability of FhHDM-1 (Δ), FhHDM-1 p1 (●) or FhHDM-1 p3 (▪) to bind to LPS was investigated by (A) incubating a range of concentrations of proteins (0.02-2 μg/well) in an LPS-coated (100 ng/well) microtitre plate. Bound peptides were detected by ELISA using rabbit anti-FhHDM-1 as a primary antibody. (B) FhHDM-1 or derived peptides (0.1 μg) were incubated in the presence of LPS (0.05-5 μg/well) and bound peptides measured as described above. Binding of peptides to the LPS-immobilized plates was expressed as a percentage of that measured for 2 μg (for panel A) or 0.1 μg (for panel B) of FhHDM-1. Data are the means±SD from three separate experiments. (C) FhHDM-1 and FhHDM-1 p3 but not FhHDM-1 p1 reduced the interaction between LPS and LBP as effectively as LL-37. LPS-coated microtitre plates were incubated with 5 μg/well of LL-37, FhHDM-1 or derived peptides for 1 h prior to the addition of 10% human sera in PBS. Interaction of LBP with LPS was measured by ELISA using an anti-LBP primary antibody and expressed as a percentage of that detected for 10% sera in the absence of added peptides. Data are the mean±SD of three separate experiments. Statistical significance was calculated using the student t-test and represent a comparison to the binding of 10% sera to immobilized LPS. (D) Binding of FITC-conjugated LPS to RAW264.7 cells was inhibited by LL-37, FhHDM-1 and peptides. RAW264.7 cells (5×10^5 cells/mL) were incubated with 1 μg/mL of FITC-conjugated LPS in the presence of increasing concentrations (0.1-10 μg/mL) of FhHDM-1, FhHDM-1 p1 and FhHDM-1 p3 and LL-37 in RPMI 1640 containing 10% FBS for 20 min at 4° C. The binding of FITC-LPS was analyzed by flow cytometry. LPS binding was expressed as a percentage of the mean fluorescence obtained for the addition of FITC-LPS to cells in the absence of peptides. Data are the mean±SD of two independent experiments. (E) FhHDM-1 and FhHDM-1 p3 both suppress the inflammatory response induced by LPS in mice. BALB/c mice were intra-peritoneally injected with 1 μg of LPS alone or combined with 1 μg of FhHDM-1, FhHDM-1 p3 or LL-37. Two hours later, sera was collected and serum levels of TNF and (F) IL-10 measured by ELISA. (G) Peritoneal macrophages were isolated, cultured unstimulated in media overnight and then levels of TNF and (H) IL-10 in the culture measured by ELISA. Data are the mean±SD of six mice in each group. Statistical significance represents a comparison to the levels of cytokines secreted by mice given LPS only.
Human Defense peptides protect against harmful inflammatory responses by preventing activation of macrophages by classical TLR ligands such as LPS (Scott et al. 2002, J. Immunol. 169, 3883-3891). Here, the inventors employed a murine model to examine whether FhHDM-1 and derived peptides can suppress LPS-induced Th1 inflammation. BALB/c mice were injected intra-peritoneally with 1 μg of LPS alone or LPS combined with 1 μg of FhHDM-1, FhHDM-1 p3 or LL-37. Two hours later, sera was collected and serum levels of the pro-inflammatory mediators TNF and IL-10 were measured by ELISA. […] Because macrophages are the main source of pro-inflammatory mediators in this murine model of inflammation, peritoneal macrophages were isolated from treated mice (LPS±FhHDM-1, peptides or LL-37 as described above), cultured unstimulated in media overnight and then levels of TNF and IL-10 in the culture media were measured by ELISA.
Six week-old female BALB/c mice were purchased from ARC (Perth, Australia) and maintained according to the guidelines of the University of Technology Sydney Animal Care and Ethics committee. For the analysis for endotoxin-induced inflammation, mice were intra-peritoneally injected with 1 μg of E. coli LPS (serotype 111:B4; Sigma) either with or without 1 μg FhHDM-1 or derived peptides. After 2 h mice were sacrificed by cervical dislocation. […]

[4] = tested on: primary human macrophages; assay: Confocal microscopy of macrophages incubated with FhHDM-1; type: cell-based; settings: 10 μg/mL for 2 h
Experimental: FIG. 10 is a photographic representation showing representative immunofluorescent images obtained by confocal microscopy at an original magnification 100× of primary human macrophages (A) and (C) incubated with recombinant FhHDM-1 (10 μg/mL for 2 h). Images (B) and (D) were experimental controls incubated with media only. Cells were stained with mouse anti-His MAb (1/2000), goat-anti-mouse Alexa-488-conjugated secondary antibody (1/1000) (green staining) and DiI plasma membrane stain (red staining). DAPI was used for identification of the cell nucleus (blue staining).

[5] = tested on: peritoneal macrophages; assay: IL-10 secretion by peritoneal macrophages of treated NOD mice; type: in vivo; settings: 10 μg i.p. x6, 24 h after last injection, compared to untreated mice
Experimental: FhHDM-1 was given to female NOD mice aged 4 weeks. 10 μg of FhHDM-1 was delivered i.p. in PBS on alternate days for a total of 6 doses. 24 h after the last injection, macrophages were isolated from the peritoneal lavage and cultured in RPMI supplemented with FCS for 12 h. IL-10 secreted into the media was measured by ELISA.
Female NOD mice (n=6) were given recombinant HDM (10 μg in 100 μL sterile PBS) by intraperitoneal (i.p.) injection on alternate days beginning at 4 weeks of age for a total of 6 injections. Control mice were given 100 μL of sterile PBS on the same days. 24 h after the last injection mice were sacrificed and peritoneal cells harvested by lavage. Macrophages were isolated from peritoneal lavages based upon their adherent properties, and cultured overnight at 37° C. in RPMI supplemented with FCS. The quantity of IL-10 secreted into the media was measured by ELISA.

[6] = BALB/c mice, 1 μg LPS mixed with 1 μg i.p., 2 h
[7] = macrophages from treated mice, cultured unstimulated overnight

B1: FhHDM-1: 90-residue polypeptide from F. hepatica, Helminth Defense Molecule-1 (SEQ ID NO:24); recombinant form minus N-terminal signal peptide, expressed in E. coli (protein, listed as Fasciola hepatica)
chain: MRFIVLLCLAEVLLAAYVEARPSEESREKLRESGRKMVKALRDAVTKAYEKARDRAMAYLAKDNLGEKITEVITILLNRLTDRLEKYAGN
Question: How did the “expression of Arg-1 and Ym1 in isolated peritoneal macrophages” value [1] turn out when B1 was run?
Answer: increased expression

Question: What about the “expression of markers of alternative activation (CD163 and CD206)” value [2] of the same molecule?
Answer: increased expression

Question: What about the “expression of markers of the classical phenotype (CD86 and HLA-DR)” value [2] of the same molecule?
Answer: decreased expression

Question: And the “serum levels of IL-10” value [3, 6]?
Answer: significant reduction

Question: And the “serum levels of TNF” value [3, 6]?
Answer: significant reduction

Question: And the “LPS-induced secretion of IL-10 from peritoneal macrophages” value [3, 7]?
Answer: significantly inhibited

Question: And the “TNF secreted from peritoneal macrophages” value [3, 7]?
Answer: significantly reduced

Question: And the “interaction with the plasma membrane of macrophages” value [4]?
Answer: interacts with the plasma membrane

Question: What about the “IL-10 secreted by peritoneal macrophages” value [5] of the same molecule?
Answer: significantly more
